# Measured values taken from paper PMC2628434.
# T1: LuxR (Vibrio harveyi, UniProt P21308 1-205)
# T1 sequence: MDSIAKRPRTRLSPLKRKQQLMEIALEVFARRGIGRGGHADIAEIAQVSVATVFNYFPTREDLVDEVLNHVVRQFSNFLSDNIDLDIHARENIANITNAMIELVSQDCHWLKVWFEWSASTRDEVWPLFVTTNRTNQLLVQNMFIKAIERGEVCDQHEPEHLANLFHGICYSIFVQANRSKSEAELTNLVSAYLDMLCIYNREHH
# B1: VP0057/8 (dsDNA)
# DNA 1: AACATTACTGATAAATTAGATATTTATGGCT
# DNA 2: AGCCATAAATATCTAATTTATCAGTAATGTT
# B2: qrgB WT (dsDNA)
# DNA 1: TGTTTATATTGAGTTCACAATCAATACCGATCA
# DNA 2: TGATCGGTATTGATTGTGAACTCAATATAAACA
# B3: qrgB A17C (dsDNA)
# DNA 1: TGTTTATATTGAGTTCACAATCCATACCGATCA
# DNA 2: TGATCGGTATGGATTGTGAACTCAATATAAACA
# B4: qrgB A6C (dsDNA)
# DNA 1: TGTTTATATTGCGTTCACAATCAATACCGATCA
# DNA 2: TGATCGGTATTGATTGTGAACGCAATATAAACA
# B5: qrgB A2C (dsDNA)
# DNA 1: TGTTTATCTTGAGTTCACAATCAATACCGATCA
# DNA 2: TGATCGGTATTGATTGTGAACTCAAGATAAACA
# B6: qrgB A2C A17C (dsDNA)
# DNA 1: TGTTTATCTTGAGTTCACAATCCATACCGATCA
# DNA 2: TGATCGGTATGGATTGTGAACTCAAGATAAACA
# B7: VPA0226/7 (dsDNA)
# DNA 1: ACCAAAATTGATAAAATGAATAATTAGATAT
# DNA 2: ATATCTAATTATTCATTTTATCAATTTTGGT
# B8: VPA0649 (dsDNA)
# DNA 1: ATTCCTTATTTACCAATTTATAAACTATGAA
# DNA 2: TTCATAGTTTATAAATTGGTAAATAAGGAAT
# B9: VPA0197/8 (dsDNA)
# DNA 1: TAAGGTAAATAATTATTTTAACAATAATTAA
# DNA 2: TTAATTATTGTTAAAATAATTATTTACCTTA
# B10: VP0944/5 (dsDNA)
# DNA 1: TAGAGTTAGTATCAATTTAATCAATAAGATA
# DNA 2: TATCTTATTGATTAAATTGATACTAACTCTA
# B11: qrr4 A17C (dsDNA)
# DNA 1: CATTTTTCTGATAAATGTATTCGTAGCAATG
# DNA 2: CATTGCTACGAATACATTTATCAGAAAAATG
# B12: qrr4 WT (dsDNA)
# DNA 1: CATTTTTCTGATAAATGTATTAGTAGCAATG
# DNA 2: CATTGCTACTAATACATTTATCAGAAAAATG
# B13: qrr4 A6C A17C (dsDNA)
# DNA 1: CATTTTTCTGCTAAATGTATTCGTAGCAATG
# DNA 2: CATTGCTACGAATACATTTAGCAGAAAAATG
# B14: qrr4 A6C (dsDNA)
# DNA 1: CATTTTTCTGCTAAATGTATTAGTAGCAATG
# DNA 2: CATTGCTACTAATACATTTAGCAGAAAAATG
# B15: qrr4 T15C (dsDNA)
# DNA 1: CATTTTTCTGATAAATGTACTAGTAGCAATG
# DNA 2: CATTGCTACTAGTACATTTATCAGAAAAATG
# B16: Consensus (dsDNA)
# DNA 1: ACTGATATTGATAAATTTATCAATAATGACT
# DNA 2: AGTCATTATTGATAAATTTATCAATATCAGT
# B17: Negative control (dsDNA)
# DNA 1: ACTGACTGACTGACTGACTGACTGACTGACT
# DNA 2: AGTCAGTCAGTCAGTCAGTCAGTCAGTCAGT
# Target: T1, LuxR
# Test: fluorescence anisotropy
row,Binder,Kd [nM]
1,B1,47 ± 8
2,B2,27 ± 3
3,B3,43 ± 6
4,B4,44 ± 5
5,B5,27 ± 4
6,B6,242 ± 46
7,B7,73 ± 12
8,B8,30 ± 8
9,B9,68 ± 11
10,B10,30 ± 7
11,B11,38 ± 5
12,B12,35 ± 4
13,B13,112 ± 27
14,B14,68 ± 11
15,B15,27 ± 4
16,B16,24 ± 4

# Target: T1, LuxR
# Test: fluorescence anisotropy
# Remark: another data set of the same source
row,Binder,Kd [nM]
1,B17,136 ± 63
